Our source for the Km values is article PMC2831815.

Substrate in this series: Nc1ncnc2c1ncn2[C@@H]1O[C@H](COP(=O)(O)OP(=O)(O)OP(=O)(O)O)[C@@H](O)[C@H]1O
Description: purified protein. Conditions: 10 mM MgCl2, pH 7.6, 37 °C, ATP 0.025-3.5 mM.

B1: TraK (Aeromonas veronii) (protein)
chain: MKNKAGFIGFLLFVFALCSVGSLYLGGYMLLKKSGVDMSALSIHTFFDVNRDLGGDPAFKKIIAWGWIGFAIPYAIFLFFVGVMLVGLMPKKVIYGDGRLATPMDLARSGFFPKKGDKHKQPPILIGKMFKGRFKNSYIYFYGQQFLILYAPTRSGKGVGIVIPNCVNYPESIVVLDIKLENFFLSAGYRKEQGQECFLFSPDGFADNLDAARRGEIKSHRFNPLDYVSRSPLQRESDLKKIAAILYPTSGGENDTWNESASSLWIGLALYLLDMEKVEPKTKVAVSQIIKISVPGSGDPLEKWMELTIKAKSDILGDDTKQYFRKFMSAADRTRASILVNFNNGVAVFSNPITAAATDSSDFDLRDLRKKKMSVYLGLSPNSLVTHAKLVNLFFSLLVNENTKELPENNPELKYQCLLILDEFTSMGRVEIIQKAVGFTAGYNIRFMFILQNKGQLEDDKMYGKEGAETFIENTGVELYYPPKSVNDTAKAISEKIGVRDEKVSSISRSSQSGKTSRSKSTSTEKRAVLLPDEIVSLRDHKNKGGNMAVREIILSDFCRPFIANKIVYFEEPIFMERVNYARKNPIEIPFLFNEDERKTFTCDSISLGSVMKKPDLDNHDQADKSE
The Km is the substrate concentration at which the rate is half of its maximum. Regarding B1, the Km (Discussion prints 0.96 mM instead) turned out to be 920 µM.

B2: TraE (Aeromonas veronii) (protein)
chain: MKQIKQTPLKKGRTEPVMRMYPDYQFHVSDNVVFTADKKALASIAIEGMPFESISDGVLESDFDSIKNFLVNMGKDGDVYLWTHLVKEKVSLDEEYHFKSDFLNRFSNQYTELFRGSNFFKSTYYLTFGIKYSNISEAIERLDEVIHQAKAVLGKYGAHVLTVDQNRVSGVADYLHLLLNKSHAEIPLSINPISSSIADSEWYFGYDSLELRNNEAEEKKFATNYVVKDFPMFTELGQWDFLLRLPYEFIITQSFIYEAPTKTLKEIDAQLNKMGSAGDAAENQQDELVLGKEVVTSGITLFGSYHCVLTVFGRTADEARKNGIKVSSEFVSAGKGFRFIRTNSAGAHCYFSHMPMNKIRPLATRRTITNLACTFSLHNYSHGKKRGNPIGDGTAIMPLKTVADGLYWFNTHYSEPGRDVRGQKIAGHAMILGATGAGKTTFEGAAAGFLQRFDPYMFVVDFNRSTELFVRAYGGSYFTLKEGEYTGLNPFQICDLDDELAPRLVQFLKSYVKTLAYDQSGKPCSDAQAEELAKAVDATMLLPREMRRLSTLLSRISDPELKIRLAKWCGAGQYAWAVDSPRNTFNPMDFKKVGFDTTVILEKTKDGVHPACEPLLAILFFYKSLMQREGQLMLSIIEEFWMPANFPLTQAMIKSALKAGRMKGEMMWLTSQSPEDAIYCEIFPALVQQTATKILLPNPDADLEGYKKIGLTVKEFDRLKKLGKESRTMLIKQSGSSCFAKMDLYGFDDFLPIISGSMEGITLCEKVRAELGTDNPDIWIPEFLKQLREE
For the protein B2, the Km was determined as 550 µM.
